Test results from JP2005168497A (dated 2005).
Numbering of substitutions follows the chain as printed. Values belong to the binder of their own block, whether it stands above or below them.

Columns and labels:
[1] = molecular target: T1, TRAIL-R1-hFc (ヒトTRAIL-R1の細胞外領域とヒトIgG1のFc領域とが融合したタンパク質, ALEXIS社製) (human, UniProt O00220 24-239); experiment: ELISA, purified antibody on plate-coated TRAIL-R1-hFc (Example 4)
T1 construct: extracellular domain; Bought (ALEXIS); not shown: human IgG1 Fc region
T1 sequence (looked up): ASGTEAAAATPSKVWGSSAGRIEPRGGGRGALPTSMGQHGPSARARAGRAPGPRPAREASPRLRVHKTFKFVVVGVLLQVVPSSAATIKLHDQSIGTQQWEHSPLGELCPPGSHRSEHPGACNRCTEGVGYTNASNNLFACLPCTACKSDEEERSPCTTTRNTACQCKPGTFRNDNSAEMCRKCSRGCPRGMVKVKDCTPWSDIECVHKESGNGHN

[2] = molecular target: ヒトTRAIL-R2 (細胞表面の受容体; Colo205, U251, Jurkat, 正常ヒト肝実質細胞) (human, UniProt O14763 56-440); experiment: cell-based or functional assay

- binding result [1]: binds
B1: KMTR1抗体 (ハイブリドーマKMTR1, FERM BP-8038 の産生するヒトモノクローナル抗体) (antibody, V domains shown)
VH: EVQLLESGGGLVQPGRSLRLSCAASGFTFSSYAMSWVRQAPGKGLEWVSAISGSGGSRYYADSVKGRFTISRDNSKNTLYLQMNSLRAEDTAVYYCAKESSGWFGAFDYWGQGTLVTVSS
VL: EIVLTQSPDFQSVTPKEKVTITCRASQSIGSSLHWYQQKPDQSPKLLIKYASQSFSGVPSRFSGSGSGTDFTLTINSLEAEDAAAYYCHQSSSLPITFGQGTRLEIK
notes: Human IgG, kappa light chain; Signal peptide limits are predictions, not N-terminal analysis

B2: L-30-10抗体 (ハイブリドーマL-30-10, FERM BP-7700 / FERM BP-7769 の産生するヒト抗TRAIL-R2モノクローナル抗体) (antibody, V domains shown)
VH: QLQLQESGPGLVKPSETLSLTCTVSGGSISSRSNYWGWIRQPPGKGLEWIGNVYYRGSTYYNSSLKSRVTISVDTSKNQFSLKLSSVTVADTAVYYCARLSVAEFDYWGQGILVTVSS
VL: EIVLTQSPATLSLSPGERATLSCRASQSVSSFLAWYQQKPGQAPRLLIYDASNRATGSPARFSGSGSGTDFTLTISSLEPEDFAVYYCQQRSDWPLTFGPGTKVDIK
- Jurkat細胞に対するLD50 (48時間) [2]: 0.13 µg/mL
- U251細胞に対するLD50 (シスプラチン4μg/ml同時添加, 48時間) [2]: 0.17 µg/mL

B3: E-11-13抗体 (ハイブリドーマE-11-13, FERM BP-7698 / FERM BP-7770 の産生するヒト抗TRAIL-R2モノクローナル抗体) (antibody, V domains shown)
VH: QLQLQESGPGLVKPSETLSLTCTVSGGSIISKSSYWGWIRQPPGKGLEWIGSIYYSGSTFYNPSLKSRVTISVDTSKNQFSLKLSSVTAADTAVYYCARLTVAEFDYWGQGTLVTVSS
VL: B2 VL with S58I, D93N
- Jurkat細胞に対するLD50 (48時間) [2]: 0.1 µg/mL
- U251細胞に対するLD50 (シスプラチン4μg/ml同時添加, 48時間) [2]: 0.3 µg/mL
